From US20110271397, “MOLECULAR CLOCK MECHANISM OF HYBRID VIGOR” (published 2011)

B1: TOC1 promoter EE oligo (dsDNA)
DNA 1: ACACAAAAAAAATATCTAATCACAG
DNA 2: CTGTGATTAGATATTTTTTTTGTGT
B2: PORB promoter EE oligo (dsDNA)
DNA 1: ATTAAAATAAAATATCTAAGGAGAA
DNA 2: TTCTCCTTAGATATTTTATTTTAAT
B3: GWD3 promoter EE oligo (dsDNA)
DNA 1: CACAAACAAAAAAATCTCTTATCAC
DNA 2: GTGATAAGAGATTTTTTTGTTTGTG
B4: DPE1 promoter EE oligo (dsDNA)
DNA 1: AGAGCAACAAAATATCTCGACTGTT
DNA 2: AACAGTCGAGATATTTTGTTGCTCT
B5: PORA promoter EE oligo (dsDNA)
DNA 1: TATACATTAAAATATCTACTGACAG
DNA 2: CTGTCAGTAGATATTTTAATGTATA

Legend:
[1] = molecular target: T1, CCA1 (Arabidopsis thaliana, UniProt P92973 P92973:1-608); assay: EMSA; 10 fmol rCCA1 and 10 fmol probe; cold competitor 5-50x; conditions: tags: full-length cDNA in pET300/NT-DEST, E. coli Rosetta-gami B; label: 32P
Source text: (§1) The cDNA was cloned into pDONR221 and validated by sequencing. The resulting insert was transferred by recombination into pET300/NT-DEST expression vector (Invitrogen Corp., Carlsbad, Calif.) and expressed in Escherichia coli Rosetta-gami B competent cells (Novagen, Madison, Wis.). Recombinant CCA1 protein was purified and subjected to EMSA in 6% native polyacrylamide gels using rCCA1 (10 fmoles) and ³²P-labeled double-stranded oligonucleotides (10 fmoles, Table 5). The cold probe (Cp) concentrations were 0 (-), 50 (5×), 100 (10×), 200 (20×), and 500 (50×) fmoles, respectively, according to a published protocol available at http://www.natureprotocols.com/2009/01/08/the_electrophoretic_mobility_s_{—}1.php.

[2] = molecular target: T1, CCA1; assay: EMSA; 10 fmol rCCA1 and 10 fmol probe; cold competitor 5-50x; text prints PORE for PORB; conditions: tags: full-length cDNA in pET300/NT-DEST, E. coli Rosetta-gami B; label: 32P
Source text: as §1

T1 sequence (P92973 whole entry, one chain of several): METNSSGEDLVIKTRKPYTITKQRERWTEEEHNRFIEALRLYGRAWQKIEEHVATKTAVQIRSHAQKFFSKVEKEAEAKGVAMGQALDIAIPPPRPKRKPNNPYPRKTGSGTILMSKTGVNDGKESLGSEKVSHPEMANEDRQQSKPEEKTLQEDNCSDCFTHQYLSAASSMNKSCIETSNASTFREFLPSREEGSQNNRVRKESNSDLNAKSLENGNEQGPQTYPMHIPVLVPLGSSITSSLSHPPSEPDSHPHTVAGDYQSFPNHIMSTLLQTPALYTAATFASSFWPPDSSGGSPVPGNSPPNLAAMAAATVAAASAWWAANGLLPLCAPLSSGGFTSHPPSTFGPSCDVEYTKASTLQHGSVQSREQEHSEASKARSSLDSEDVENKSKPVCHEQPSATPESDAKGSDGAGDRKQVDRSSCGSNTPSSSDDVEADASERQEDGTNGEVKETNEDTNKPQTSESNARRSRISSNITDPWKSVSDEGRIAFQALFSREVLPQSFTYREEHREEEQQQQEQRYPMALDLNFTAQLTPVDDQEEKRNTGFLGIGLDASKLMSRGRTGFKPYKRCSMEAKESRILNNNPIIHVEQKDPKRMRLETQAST

| Binder | binding result [1] | binding result [2] |
| --- | --- | --- |
| B1 | binds |  |
| B2 |  | binds |
| B3 | binds |  |
| B4 | binds |  |
| B5 | binds |  |
